According to IntAct's records for PubMed 12730685:

Molecular target: mgn_human MAGOH (UniProt P61326)

RNA-binding protein 8A (Homo sapiens) (from UniProt Q9Y5S9) L118R
effect of a mutation on the interaction: decreasing interaction
